Results published in the Human Domainome abundance scans (Beltran et al. 2025).
± gives the uncertainty stated by the source.

B1: Tyrosine-protein kinase BTK, residues 215 to 273; numbered along this chain, Q06187 (parent)
chain: ELKKVVALYDYMPMNANDLQLRKGDEYFILEESNLPWWRARDKNGQEGYIPSNYVTEAE

Variants of: B1
Experiment: abundance fitness (aPCA) (normalised: wild type 0, dead -1); higher = more abundant; growth selection in yeast, the domain comes from the species named
Settings: Homo sapiens

| Variant | abundance fitness |
| --- | --- |
| N34Q | 0.118 ± 0.058 |
| N34E | 0.037 ± 0.043 |
| N34D | 0.073 ± 0.074 |
| N34H | -0.066 ± 0.076 |
| N34S | 0.033 ± 0.043 |
| N34W | -0.032 ± 0.06 |
| N34M | 0.014 ± 0.059 |
| N34Y | -0.102 ± 0.063 |
| N34V | 0.065 ± 0.033 |
| N34L | 0.033 ± 0.036 |
| N34G | 0.07 ± 0.037 |
| W38C | -0.027 ± 0.048 |
| W38N | -0.098 ± 0.056 |
| W38V | 0.022 ± 0.035 |
| W38K | -0.008 ± 0.043 |
| W38A | -0.017 ± 0.061 |
| W38Q | -0.019 ± 0.05 |
| W38F | -0.031 ± 0.043 |
| W38L | -0.005 ± 0.029 |
| W38G | -0.22 ± 0.043 |
| W38P | -0.038 ± 0.043 |
| W38D | -0.157 ± 0.093 |
| W38H | -0.029 ± 0.071 |
| W38T | -0.009 ± 0.037 |

| Variant | abundance fitness |
| --- | --- |
| W38Y | 0.044 ± 0.063 |
| W38M | 0.017 ± 0.037 |
| W38S | 0.042 ± 0.032 |
| G48C | -0.793 ± 0.096 |
| G48P | -0.68 ± 0.088 |
| G48S | -0.862 ± 0.057 |
| G48R | -0.827 ± 0.052 |
| G48A | -0.825 ± 0.073 |
| G48M | -0.946 ± 0.078 |
| G48H | -0.856 ± 0.13 |
| G48L | -0.993 ± 0.052 |
| G48W | -1.02 ± 0.087 |
| G48Y | -0.968 ± 0.15 |
| G48V | -0.92 ± 0.063 |
| G48D | -0.791 ± 0.11 |
| G48F | -0.725 ± 0.066 |
| G48N | -0.97 ± 0.17 |
| G48Q | -0.845 ± 0.075 |
| G48K | -0.8 ± 0.069 |
| G48T | -0.886 ± 0.069 |
| G48I | -1.13 ± 0.18 |
| G48E | -0.895 ± 0.12 |
| I50N | -0.92 ± 0.17 |
| I50S | -1.05 ± 0.12 |

| Variant | abundance fitness |
| --- | --- |
| I50K | -1.02 ± 0.15 |
| I50E | -0.95 ± 0.08 |
| I50V | -0.014 ± 0.038 |
| I50Q | -1.2 ± 0.18 |
| I50L | -0.043 ± 0.035 |
| I50G | -0.876 ± 0.07 |
| I50Y | -0.757 ± 0.1 |
| I50R | -1.01 ± 0.091 |
| I50M | -0.291 ± 0.054 |
| I50H | -0.592 ± 0.17 |
| I50F | -0.121 ± 0.082 |
| N44G | 0.017 ± 0.046 |
| N44V | -0.054 ± 0.049 |
| N44I | 0.036 ± 0.099 |
| N44F | -0.026 ± 0.051 |
| N44K | 0.07 ± 0.082 |
| N44E | -0.009 ± 0.061 |
| N44Q | -0.016 ± 0.051 |
| N44D | -0.01 ± 0.066 |
| N44W | -0.056 ± 0.065 |
| N44S | -0.05 ± 0.049 |
| N44R | -0.067 ± 0.043 |
| N44H | -0.063 ± 0.072 |
| N44C | -0.019 ± 0.076 |

| Variant | abundance fitness |
| --- | --- |
| N44A | -0.041 ± 0.055 |
| N44M | -0.061 ± 0.095 |
| N44L | -0.023 ± 0.042 |
| N44T | 0.029 ± 0.051 |
| Q46H | 0.04 ± 0.069 |
| Q46W | -0.161 ± 0.045 |
| Q46T | -0.048 ± 0.052 |
| Q46Y | -0.127 ± 0.087 |
| Q46N | 0.007 ± 0.075 |
| Q46G | -0.036 ± 0.045 |
| Q46V | 0.044 ± 0.037 |
| Q46D | -0.077 ± 0.079 |
| Q46M | -0.053 ± 0.044 |
| Q46L | -0.014 ± 0.031 |
| Q46S | -0.065 ± 0.043 |
| Q46I | 0.047 ± 0.061 |
| Q46A | 0.014 ± 0.051 |
| Q46C | 0.029 ± 0.055 |
| Q46E | -0.005 ± 0.073 |
| Q46R | -0.016 ± 0.035 |
| Q46P | -0.616 ± 0.073 |
| Q46F | -0.028 ± 0.06 |
| E32S | -0.018 ± 0.046 |
| E32A | 0.016 ± 0.094 |

| Variant | abundance fitness |
| --- | --- |
| E32F | -0.173 ± 0.076 |
| E32P | -0.007 ± 0.066 |
| E32N | -0.055 ± 0.11 |
| E32M | -0.082 ± 0.064 |
| E32H | -0.114 ± 0.079 |
| E32K | -0.133 ± 0.08 |
| E32T | -0.013 ± 0.072 |
| E32W | -0.09 ± 0.07 |
| E32V | 0.014 ± 0.053 |
| E32I | -0.202 ± 0.12 |
| E32Q | 0.028 ± 0.075 |
| E32R | -0.038 ± 0.05 |
| E32Y | -0.083 ± 0.061 |
| E31P | -0.162 ± 0.049 |
| E31R | -0.028 ± 0.032 |
| E31W | -0.105 ± 0.036 |
| E31T | -0.04 ± 0.05 |
| E31Q | 0.072 ± 0.058 |
| E31S | 0.05 ± 0.031 |
| E31V | -0.119 ± 0.04 |
| K43T | -0.016 ± 0.049 |
| K43S | -0.016 ± 0.043 |
| K43P | -0.098 ± 0.061 |
| K43M | 0.021 ± 0.056 |

| Variant | abundance fitness |
| --- | --- |
| K43Q | 0.009 ± 0.057 |
| K43N | -0.018 ± 0.085 |
| K43A | 0.031 ± 0.038 |
| K43G | 0.004 ± 0.029 |
| K43I | 0.049 ± 0.066 |
| K43F | -0.11 ± 0.072 |
| K43C | -0.033 ± 0.056 |
| K43L | -0.029 ± 0.045 |
| K43H | -0.026 ± 0.086 |
| K43E | -0.005 ± 0.047 |
| K43R | -0.033 ± 0.033 |
| K43V | -0.001 ± 0.037 |
| K43D | -0.094 ± 0.057 |
| R39A | -0.179 ± 0.043 |
| R39K | -0.064 ± 0.051 |
| R39G | -0.36 ± 0.036 |
| R39W | -0.042 ± 0.046 |
| R39V | -0.065 ± 0.033 |
| R39T | -0.111 ± 0.06 |
| R39Y | -0.171 ± 0.07 |
| R39Q | -0.031 ± 0.06 |
| R39F | -0.069 ± 0.057 |
| R39E | -0.199 ± 0.046 |
| R39H | -0.116 ± 0.11 |

| Variant | abundance fitness |
| --- | --- |
| R39L | -0.062 ± 0.038 |
| R39S | -0.089 ± 0.039 |
| R39C | -0.181 ± 0.054 |
| R39P | -0.187 ± 0.073 |
| A40R | -0.825 ± 0.044 |
| A40W | -1.02 ± 0.087 |
| A40D | -0.952 ± 0.17 |
| A40Q | -0.758 ± 0.093 |
| A40T | -0.456 ± 0.057 |
| A40V | -0.047 ± 0.04 |
| A40G | -0.047 ± 0.035 |
| A40C | -0.121 ± 0.041 |
| A40Y | -0.734 ± 0.086 |
| A40P | -1.16 ± 0.14 |
| A40L | -0.181 ± 0.034 |
| A40F | -0.892 ± 0.1 |
| A40S | -0.298 ± 0.038 |
| A40M | -0.334 ± 0.047 |
| A40I | -0.266 ± 0.076 |
| A40H | -0.674 ± 0.14 |
| A40N | -0.981 ± 0.14 |
| A40E | -0.965 ± 0.11 |
| A40K | -1.07 ± 0.18 |
